B1: Protein lin-28 homolog A (Mus musculus), Q8K3Y3 (parent)
chain: MGSVSNQQFAGGCAKAAEKAPEEAPPDAARAADEPQLLHGAGICKWFNVRMGFGFLSMTARAGVALDPPVDVFVHQSKLHMEGFRSLKEGEAVEFTFKKSAKGLESIRVTGPGGVFCIGSERRPKGKNMQKRRSKGDRCYNCGGLDHHAKECKLPPQPKKCHFCQSINHMVASCPLKAQQGPSSQGKPAYFREEEEEIHSPALLPEAQN
partner: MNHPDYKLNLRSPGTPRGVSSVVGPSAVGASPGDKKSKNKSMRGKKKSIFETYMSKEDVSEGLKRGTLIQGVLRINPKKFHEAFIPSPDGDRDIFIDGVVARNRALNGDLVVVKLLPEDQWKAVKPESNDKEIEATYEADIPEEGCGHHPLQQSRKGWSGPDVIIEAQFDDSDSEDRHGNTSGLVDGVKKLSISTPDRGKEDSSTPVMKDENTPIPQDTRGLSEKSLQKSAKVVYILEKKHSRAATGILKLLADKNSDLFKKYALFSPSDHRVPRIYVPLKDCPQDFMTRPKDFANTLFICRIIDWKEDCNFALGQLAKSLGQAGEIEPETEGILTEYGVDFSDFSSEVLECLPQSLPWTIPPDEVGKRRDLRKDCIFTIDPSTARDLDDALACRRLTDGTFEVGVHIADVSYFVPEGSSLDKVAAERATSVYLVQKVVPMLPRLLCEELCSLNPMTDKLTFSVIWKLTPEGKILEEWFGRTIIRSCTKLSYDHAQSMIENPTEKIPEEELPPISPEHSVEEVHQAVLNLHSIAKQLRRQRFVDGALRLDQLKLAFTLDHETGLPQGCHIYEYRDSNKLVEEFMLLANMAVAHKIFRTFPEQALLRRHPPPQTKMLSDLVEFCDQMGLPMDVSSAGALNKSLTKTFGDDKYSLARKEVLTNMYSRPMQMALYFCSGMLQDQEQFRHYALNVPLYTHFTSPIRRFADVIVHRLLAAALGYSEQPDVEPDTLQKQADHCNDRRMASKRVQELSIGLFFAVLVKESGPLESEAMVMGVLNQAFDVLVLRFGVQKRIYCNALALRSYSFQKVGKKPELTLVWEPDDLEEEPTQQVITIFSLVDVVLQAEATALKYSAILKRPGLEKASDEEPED

Variants of: B1
Details: with di3l2_mouse Dis3l2, Q8CI75

Variant | effect of a mutation on the interaction
W46A | decreasing interaction strength
